These results are taken from PMC3448639.

This series is described as follows: 6% PFO-PAGE immunoblot. As to conditions: glycan lost; control: wild type. Background: A western blot detects proteins with antibodies after separation by electrophoresis.

B1: SR-BI (scavenger receptor class B type I; CLA-1): T175A (protein)
parent chain: MGCSAKARWAAGALGVAGLLCAVLGAVMIVMVPSLIKQQVLKNVRIDPSSLSFNMWKEIPIPFYLSVYFFDVMNPSEILKGEKPQVRERGPYVYREFRHKSNITFNNNDTVSFLEYRTFQFQPSKSHGSESDYIVMPNILVLGAAVMMENKPMTLKLIMTLAFTTLGERAFMNRTVGEIMWGYKDPLVNLINKYFPGMFPFKDKFGLFAELNNSDSGLFTVFTGVQNISRIHLVDKWNGLSKVDFWHSDQCNMINGTSGQMWPPFMTPESSLEFYSPEACRSMKLMYKESGVFEGIPTYRFVAPKTLFANGSIYPPNEGFCPCLESGIQNVSTCRFSAPLFLSHPHFLNADPVLAEAVTGLHPNQEAHSLFLDIHPVTGIPMNCSVKLQLSLYMKSVAGIGQTGKIEPVVLPLLWFAESGAMEGETLHTFYTQLVLMPKVMHYAQYVLLALGCVLLLVPVICQIRSQVGAGQRAARADSHSLACWGKGASDRTLWPTAAWSPPPAAVLRLCRSGSGHCWGLRSTLASFACRVATTLPVLEGLGPSLGGGTGS
Take B1: the oligomerisation result is on record as “no change”.
